Laboratory results published in article doi:10.1101/294439.
Values belong to the substance of their own block, whether it stands above or below them.

Experiments:
Experiment in all cases: SEC
[1] = molecular target: Piper methysticum styrylpyrone synthase 1 (PmSPS1) (kava (Piper methysticum))
[2] = molecular target: Piper methysticum styrylpyrone synthase 2 (PmSPS2) (kava (Piper methysticum))
[3] = molecular target: Piper methysticum chalcone synthase (PmCHS) (kava (Piper methysticum))
[4] = molecular target: Piper methysticum kavalactone reductase 1 (PmKLR1) (kava (Piper methysticum))

- stoichiometry N [1]: 2
Substance: Piper methysticum styrylpyrone synthase 1 (PmSPS1) (enzyme)

- stoichiometry N [2]: 2
Substance: Piper methysticum styrylpyrone synthase 2 (PmSPS2) (enzyme)

- stoichiometry N [3]: 2
Substance: Piper methysticum chalcone synthase (PmCHS) (enzyme)

- stoichiometry N [4]: 2
Substance: Piper methysticum kavalactone reductase 1 (PmKLR1) (enzyme)
